Publication PMC5457521

How the values were obtained:
[1] = target: DENV2 sE FGA02 L107C/A313C, disulfide-linked dimer (Dengue virus serotype 2, strain FGA02); assay: SEC
[2] = target: DENV2 sE FGA02 A259C, disulfide-linked dimer (Dengue virus serotype 2, strain FGA02); assay: SEC-MALS; sE alone, ~150 ug on Superdex 200 10/300 GL, Tris 50 mM, NaCl 500 mM (pH 8.0), 0.4 ml min^−1

| Substance | stoichiometry N [1] | stoichiometry N [2] |
| --- | --- | --- |
| DENV2 sE FGA02 L107C/A313C, disulfide-linked dimer (domain or fragment) | 2 |  |
| DENV2 sE FGA02 A259C, disulfide-linked dimer (domain or fragment) |  | 2 |
